Molecular target: 3HA-3FLAG-CIAO3-C190S/C395S (human) (UniProt Q9H6Q4)
Experiment: affinity purification with mass spectrometry; anti-HA beads on lysates of Flp-In 293 cells expressing the 3HA-3FLAG-tagged bait (NUBP2, wildtype or mutant CIAO3); targeted proteomics assay (parallel reaction monitoring) of CIA components and substrates; CIAO3 purifications normalised to CIAO3; wildtype CIAO3 cells also treated with FAC or DFO for 8 h

3HA-3FLAG-CIAO3-C190S/C395S (human), sequence (Q9H6Q4 whole entry C190S/C395S): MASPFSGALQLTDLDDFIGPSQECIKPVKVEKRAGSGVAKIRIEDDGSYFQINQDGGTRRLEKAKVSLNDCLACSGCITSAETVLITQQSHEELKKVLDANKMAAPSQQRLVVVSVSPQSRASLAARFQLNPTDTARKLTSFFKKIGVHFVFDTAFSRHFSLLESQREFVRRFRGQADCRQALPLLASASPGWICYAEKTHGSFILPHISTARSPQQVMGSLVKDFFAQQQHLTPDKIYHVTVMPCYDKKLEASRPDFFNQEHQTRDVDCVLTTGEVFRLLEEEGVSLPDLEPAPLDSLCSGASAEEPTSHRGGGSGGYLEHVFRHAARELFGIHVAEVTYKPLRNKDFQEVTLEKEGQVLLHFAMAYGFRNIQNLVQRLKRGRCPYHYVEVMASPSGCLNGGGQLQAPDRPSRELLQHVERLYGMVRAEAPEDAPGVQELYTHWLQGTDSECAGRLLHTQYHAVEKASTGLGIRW

The CIA targeting complex
fold decrease against wildtype CIAO3: 3 to 4 fold

Source: paper PMC9243173
